# According to paper PMC5689134, “Detailed Analysis of Insulin Absorption Variability and the Tissue Response to Continuous Subcutaneous Insulin Infusion Catheter Implantation in Swine” (Diabetes Technology & Therapeutics, 2017):
# Tested on: subcutaneous tissue
# Test: Tissue histology surrounding CSII catheters, pathologist grading
# Format: in vivo, swine
# Conditions: for Tissue histopathology compared with catheters infused with saline or not infused: day 5 of CSII infusion, result in words
# Experimental: The swine were euthanized after completion of the third PK study on day 5. A 50 μL bolus of methylene blue dye was then infused into the CCs and ICs to determine whether dye migrated onto the skin surface. The skin and subcutaneous tissue surrounding the 72 catheters were excised and fixed in 10% formalin for 3 days. The tissue was grossed and processed using a long dehydration protocol for fatty tissue.[21] Specimens were sectioned perpendicular or parallel to the skin surface depending on the location and angle of the cannula in the excised tissue specimen. Four-micrometer-thick tissue sections were stained with hematoxylin and eosin (nuclei are stained blue/purple, extracellular matrix [ECM] and cytoplasm are stained in pink), Masson's trichrome (collagen/connective tissue is stained blue, muscle fibers and erythrocytes are stained bright red, and cytoplasm is stained pink), and a reticulin stain (type III collagen is stained silver).
# A surgical pathologist analyzed the stained tissue for no, mild, moderate, or severe (grades 0, 1, 2, or 3, respectively) hemorrhage, reticular fiber disruption, fibrin deposition, fat necrosis, and collagen deposition compared with unaffected tissue. This grading system was newly established by the lead pathologist of this study who predefined these criteria before analyzing all samples. The pathologist remained blinded throughout the study. The size of the debris field was measured (mm) using the Aperio ScanScope image capture device and ImageScope software (Leica Biosystems). Topography of tissue planes was considered regular if subcutaneous tissue was pushed down evenly in the direction of the cannula tip and irregular or intermediate otherwise. Irregular or regular reservoir geometry described the shape of the debris field surrounding the catheter tip.
# Fisher's exact test was used to evaluate the differences in histology profiles of CCs and ICs. A chi-squared test was applied to analyze differences in methylene blue dye leakage.
# [1] = swine s.c. tissue, day 5, insulin-infused CSII catheters (CC + IC), count (percent in brackets)
# [2] = swine s.c. tissue, day 5, insulin-infused CSII catheters (CC + IC), count (percent in brackets), P < 0.05 between infusion types
# [3] = swine, day 5, insulin-infused CC, count (percent of 11 catheters)
# [4] = swine, day 5, insulin-infused IC, count (percent of 12 catheters)
substance,measurement,setting,value
insulin lispro,Collagen deposition at tip: catheters graded Mild,[1],16 (66.7)
same,Collagen deposition at tip: catheters graded Moderate,[1],5 (20.8)
same,Collagen deposition at tip: catheters graded None,[1],2 (8.3)
same,Collagen deposition at tip: catheters graded Severe,[1],1 (4.2)
same,Fat Necrosis: catheters graded Mild,[1],5 (20.8)
same,Fat Necrosis: catheters graded Moderate,[1],12 (50.0)
same,Fat Necrosis: catheters graded None,[1],1 (4.2)
same,Fat Necrosis: catheters graded Severe,[1],6 (25.0)
same,Hemorrhage at tip base: catheters graded Mild,[1],13 (54.2)
same,Hemorrhage at tip base: catheters graded Moderate,[1],10 (41.7)
same,Hemorrhage at tip base: catheters graded None,[1],1 (4.2)
same,Hemorrhage at tip base: catheters graded Severe,[1],0
same,Reticular Fiber Disruption: catheters graded Mild,[1],9 (37.5)
same,Reticular Fiber Disruption: catheters graded Moderate,[1],6 (25.0)
same,Reticular Fiber Disruption: catheters graded None,[1],1 (4.2)
same,Reticular Fiber Disruption: catheters graded Severe,[1],8 (33.3)
same,Fibrin Deposition in Reservoir: catheters graded Mild,[2],2 (8.3)
same,Fibrin Deposition in Reservoir: catheters graded None,[2],1 (4.2)
same,Fibrin deposition in reservoir: catheters graded Moderate,[2],11 (45.8)
same,Fibrin deposition in reservoir: catheters graded Severe,[2],10 (41.7)
same,Tissue histopathology compared with catheters infused with saline or not infused,swine s.c. tissue,increased fibrin
same,Tissue histopathology compared with catheters infused with saline or not infused,"swine s.c. tissue, listed as lispro insulin",greater amount of fibrin in the reservoir
same,Collagen Deposition at Tip: catheters graded Mild,[3],9 (82%)
same,Collagen Deposition at Tip: catheters graded Moderate,[3],2 (18%)
same,Collagen Deposition at Tip: catheters graded None,[3],0
same,Collagen Deposition at Tip: catheters graded Severe,[3],0
same,Fat Necrosis: catheters graded Mild,[3],4 (36%)
same,Fat Necrosis: catheters graded Moderate,[3],7 (64%)
same,Fat Necrosis: catheters graded None,[3],0
same,Fat Necrosis: catheters graded Severe,[3],0
same,Fibrin Deposition in Reservoir: catheters graded Mild,[3],0
same,Fibrin Deposition in Reservoir: catheters graded None,[3],0
same,Fibrin deposition in reservoir: catheters graded Moderate,[3],3 (27%)
same,Hemorrhage at Tip Base: catheters graded Mild,[3],7 (64%)
same,Hemorrhage at Tip Base: catheters graded Moderate,[3],4 (36%)
same,Hemorrhage at Tip Base: catheters graded None,[3],0
same,Hemorrhage at Tip Base: catheters graded Severe,[3],0
same,Reticular Fiber Disruption: catheters graded Mild,[3],9 (82%)
same,Reticular Fiber Disruption: catheters graded Moderate,[3],2 (18%)
same,Reticular Fiber Disruption: catheters graded None,[3],0
same,Reticular Fiber Disruption: catheters graded Severe,[3],0
same,Collagen Deposition at Tip: catheters graded Mild,[4],7 (58%)
same,Collagen Deposition at Tip: catheters graded Moderate,[4],3 (25%)
same,Collagen Deposition at Tip: catheters graded None,[4],1 (8%)
same,Collagen Deposition at Tip: catheters graded Severe,[4],1 (8%)
same,Fat Necrosis: catheters graded Mild,[4],1 (8%)
same,Fat Necrosis: catheters graded Moderate,[4],5 (42%)
same,Fat Necrosis: catheters graded None,[4],0
same,Fat Necrosis: catheters graded Severe,[4],6 (50%)
same,Fibrin Deposition in Reservoir: catheters graded Mild,[4],2 (17%)
same,Fibrin Deposition in Reservoir: catheters graded None,[4],0
same,Fibrin deposition in reservoir: catheters graded Severe,[4],2 (17%)
same,Hemorrhage at Tip Base: catheters graded Mild,[4],6 (50%)
same,Hemorrhage at Tip Base: catheters graded Moderate,[4],6 (50%)
same,Hemorrhage at Tip Base: catheters graded None,[4],0
same,Hemorrhage at Tip Base: catheters graded Severe,[4],0
same,Reticular Fiber Disruption: catheters graded Mild,[4],0
same,Reticular Fiber Disruption: catheters graded Moderate,[4],4 (33%)
same,Reticular Fiber Disruption: catheters graded None,[4],0
same,Reticular Fiber Disruption: catheters graded Severe,[4],8 (67%)
